According to US20180057542A1 (University of Washington, published 2018):
Substitutions are numbered along the chain they refer to. Numbers in names are those of the source.

T1: urea-expanded bacteriophage lambda capsid shell (bacteriophage lambda, UniProt P03713 1-341; P03710 23-533)
T1 construct: also called expanded capsid; expanded capsid lattice
T1 sequence 1: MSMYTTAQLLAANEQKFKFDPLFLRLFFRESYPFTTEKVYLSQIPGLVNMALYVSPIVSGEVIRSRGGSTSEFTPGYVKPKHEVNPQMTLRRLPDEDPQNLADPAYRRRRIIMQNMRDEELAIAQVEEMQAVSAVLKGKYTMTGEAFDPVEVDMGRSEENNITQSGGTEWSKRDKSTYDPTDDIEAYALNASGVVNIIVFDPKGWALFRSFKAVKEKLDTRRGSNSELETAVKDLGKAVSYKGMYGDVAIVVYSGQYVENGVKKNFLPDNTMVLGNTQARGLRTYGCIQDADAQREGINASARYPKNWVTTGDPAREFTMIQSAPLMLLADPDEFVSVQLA
T1 sequence 2: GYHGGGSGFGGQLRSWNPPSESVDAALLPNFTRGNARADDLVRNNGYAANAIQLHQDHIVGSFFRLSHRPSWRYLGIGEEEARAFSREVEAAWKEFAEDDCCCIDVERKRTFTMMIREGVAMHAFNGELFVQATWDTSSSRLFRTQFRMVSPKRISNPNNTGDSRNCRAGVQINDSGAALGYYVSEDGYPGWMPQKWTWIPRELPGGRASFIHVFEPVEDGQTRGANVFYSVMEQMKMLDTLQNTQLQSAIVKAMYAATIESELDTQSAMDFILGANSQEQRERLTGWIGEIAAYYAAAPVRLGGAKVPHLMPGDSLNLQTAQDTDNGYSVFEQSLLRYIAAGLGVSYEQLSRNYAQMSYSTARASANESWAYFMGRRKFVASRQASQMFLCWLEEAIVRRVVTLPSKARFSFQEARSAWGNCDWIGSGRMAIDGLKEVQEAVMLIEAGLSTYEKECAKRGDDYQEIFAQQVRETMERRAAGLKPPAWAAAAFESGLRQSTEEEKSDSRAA

B1: gpD(S42C::sMannose) (other)
chain: HHHHHHMTSKETFTHYQPQGNSDPAHTATAPGGLSAKAPAMTPLMLDTCSRKLVAWDGTTDGAAVGILAVAADQTSTTLTFYKSGTFRYEDVLWPEAASDETKKRTAFAGTAISIV
modifications: 6'-maleimidohexanamido-polyethyleneglycol mannoside (sMannose) on Cys42 (numbering without the N-terminal methionine)
notes: The presence of the H6 tag is therefore not certain; also called gpD-mannose; gpD glycoprotein
B2: H6-gpD-GFP (other)
chain: B1 chain with C49S
notes: HIS-tagged fusion of an N-terminal gpD domain and a C-terminal GFP domain; also called gpD-Green Fluorescent Protein; GFP-tagged gpD
B3: wild-type bacteriophage lambda gpD decoration protein (other)
chain: MTSKETFTHYQPQGNSDPAHTATAPGGLSAKAPAMTPLMLDTSSRKLVAWDGTTDGAAVGILAVAADQTSTTLTFYKSGTFRYEDVLWPEAASDETKKRTAFAGTAISIV
notes: Monomer in solution; adds to the expanded capsid as trimer spikes at the 140 three-fold axes (420 copies per shell); also called gpD-WT; gpD-wt
B4: gpD(S42C) (other)
chain: B3 chain with S43C

Experiments:
[1] = target: T1, urea-expanded bacteriophage lambda …; assay: in vitro capsid decoration, SDS-PAGE of isolated decorated capsids
Concanavalin A = target: T2, Concanavalin A (UniProt P02866 30-281); assay: agglutination assay (absorbance at 350 nm) of decorated capsids with Concanavalin A
T2 construct: Used at 1 uM in the agglutination assay; It recognises the mannose conjugated to gpD(S42C); also called Con A; ConA

[2] = target: T1, urea-expanded bacteriophage lambda …; assay: SDS-PAGE of capsids decorated with gpD-WT alone and separated from unreacted protein

Row | Binder | Surface Density (% relative to gpD) [1] | binding result (Concanavalin A) | ratio of major capsid protein (gpE) to gpD-WT in the decorated particles [2]
1 | B1 | 82 % relative to gpD | – | –
2 | B2 | 77 % relative to gpD | – | –
3 | B3 | 100 % relative to gpD | no binding (tested: 1 µM ConA, 1 µM gpD equivalent) | ~1 ratio gpE:gpD-WT
4 | B4 | 90 % relative to gpD | no binding (tested: 1 µM ConA, 1 µM gpD equivalent) | –
